{
  "source": "paper PMC6195255",
  "about": "“EBP1 nuclear accumulation negatively feeds back on FERONIA-mediated RALF1 signaling”",
  "binders": {"B1": {"name": "CML38 promoter CCACGTC probe (dsDNA)", "DNA 1": "AACACTAATCTACCACGTCTATTACACACA", "DNA 2": "TGTGTGTAATAGACGTGGTAGATTAGTGTT"}},
  "target": "T1, EBP1-GST (UniProt Q96327-3 1-401)",
  "T1 sequence": "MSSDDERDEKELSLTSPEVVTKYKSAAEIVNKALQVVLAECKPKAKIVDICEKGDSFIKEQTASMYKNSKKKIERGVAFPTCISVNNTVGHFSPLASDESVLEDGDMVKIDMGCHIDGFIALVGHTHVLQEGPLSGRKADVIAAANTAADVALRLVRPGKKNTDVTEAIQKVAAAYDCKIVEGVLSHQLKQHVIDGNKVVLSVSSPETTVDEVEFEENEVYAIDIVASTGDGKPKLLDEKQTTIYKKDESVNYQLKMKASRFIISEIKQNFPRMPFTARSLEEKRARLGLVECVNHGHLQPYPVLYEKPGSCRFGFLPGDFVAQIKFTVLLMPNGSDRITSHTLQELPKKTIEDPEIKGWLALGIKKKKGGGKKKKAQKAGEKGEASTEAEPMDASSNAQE",
  "assay": "EMSA; 100 ng EBP1-GST, 100 pg probe; competition with unlabeled CCACGTC DNA; 10 mM Tris pH 7.5, 50 mM KCl, 1 mM MgCl2, 5% glycerol, 0.5 mM DTT, 0.2 mg/mL BSA, 0.5 mg/mL polyglutamate; room temperature 20 min; 6% native PAGE",
  "details": "protein: recombinant; tags: GST; label: FITC; blunt",
  "data": [
    {"binder": "B1", "values": [
      {"measurement": "binding result", "result": "binds"}
    ]}
  ]
}
